Measured values reported in patent publication US12104173B2, “Method for differentiation of human pluripotent stem cell lines in suspension culture” (AGENCY FOR SCIENCE, TECHNOLOGY AND RESEARCH, priority 2018, dated 2024).

B1: BMP4: bone morphogenic protein; BMP4-based protocol uses 50 ng/ml BMP4 (protein, UniProt P12644 293-408, looked up)
Bone morphogenetic protein 4: SPKHHSQRARKKNKNCRRHSLYVDFSDVGWNDWIVAPPGYQAFYCHGDCPFPLADHLNSTNHAIVQTLVNSVNSSIPKACCVPTELSAISMLYLDEYDKVVLKNYQEMVVEGCGCR

What was measured:
Type in all cases: cell-based, human
[1] = test system: X13 induced pluripotent stem cells (iPSCs) on microcarriers; assay: screening of Wnt pathway activators: mesoderm induction (T-bra, KDR+PDGFRα−) by flow cytometry; settings: at 72 hours, compared to other Wnt pathway modulators
Procedure: (A) is a column graph showing two different concentrations of seven Wnt pathway activators (BIO, SB-216763, CHIR98014, Inhibitor VIII, Kenpaullone, DRF053 dihydrochloride and Wnt3a). which were selected from literature reviews and screened with CHIR99021 as a control for the disclosed hematopoietic differentiation protocol. The viability of the X13 induced pluripotent stem cells (iPSCs) on microcarriers were tabulated accordingly 24 hours post treatment of the various Wnt pathway modulators. […] (B) is a column graph showing the percentage of mesogerm induction.
Human induced pluripotent stem cell-microcarrier (hiPSC-MC) aggregates (1×10^6 cells/ml, or 1e6 cells/nil) were transferred to mesoderm induction medium (cytokines all from Stemcell Technologies) plus Stemline II Hematopoietic Stem Cell Expansion medium (SL2) in either 6-well ultra-low attachment plates (5 ml) under continuous agitation at 75 rpm or 125 ml spinner flasks (50 ml) under continuous agitation at 36 rpm. Daily medium changes as indicated: Day 0: SL2+30 ng/ml BMP4+50 ng/ml VEGF-165+40 ng/ml Activin A+12-15 μM CHIR-99021; Day 1: SL2+30 ng/ml BMP4+50 ng/ml VEGF-165+40 ng/ml Activin A; Day 2: SL2+20 ng/ml BMP4+30 ng/ml VEGF165+5 ng/ml Activin A+10 ng/ml bFGF+20 ng/ml SCF+0.4 ng/ml β-estradiol. Samples were collected on day 1 and day 3 for flow cytometry analysis of T-brachyury (T-Bra) and KDR/PDGFRα cells, respectively.

BR7 O-neg hiPSC line = assay: CHIR dose: hematopoietic/erythroid differentiation of agitated hPSC-MC aggregates; settings: optimal dose of CHIR-99021, day 4
D5 O-neg hiPSC line = assay: as above; settings: optimal dose of CHIR-99021, day 4
hES-3-MC aggregates = assay: BMP4-based differentiation of hES-3-MC aggregates from static or agitated hPSC expansion; settings: BMP4-based protocol; for erythroid cells: starting from 2×10^5 hematopoietic precursors, repeated attempts; for T-bra: Day 2; for KDR: Day 4; for total hematopoietic precursors per well: after 2 weeks of differentiation; for total erythroblast per well: day 28
From the text: To test the hypothesis that agitation condition may be a major factor for variable differentiation, hES-3 that was initially expanded under either static (static human pluripotent stem cell (hPSC) expansion) or agitation (agitated human pluripotent stem cell expansion) condition for 7 days were differentiated under static condition using a BMP4-based differentiation protocol. […] (FIG. 10). […] Like-wise, subsequent generation of erythroblast was also severely impaired in cultures derived from agitated as compared to static hPSC expansion group (total erythroblast per well: 4.11±2.4×10^4 vs 26.2±4.7×10^6, respectively, p=0.005; total CD235a population: 0.51±0.1% vs 51.8±2.0%, p<0.0001) (FIG. 1E).
Mesoderm induction of hPSC-MC aggregates using BMP4 based protocol has previously been described. One million HPSC-MC aggregates were cultured in Stemline II hematopoietic stem cell expansion medium (Sigma-Aldrich, USA) containing 50 ng/ml of BMP4 and 50 ng/ml of VEGF165 under static condition. 48 hours later, half the medium was removed and replaced with Stemline II medium containing 50 ng/ml of BMP4, 50 ng/ml of VEGF165 and 20 ng/ml of bFGF (all cytokines from STEMCELL Technologies). HPSC-MC aggregates were cultured for a further 48 hours before being used for hematopoietic precursors differentiation.
One million HPSC-MC aggregates were cultured in Stemline II hematopoietic stem cell expansion medium (Sigma-Aldrich, USA) containing 50 ng/ml of BMP4 and 50 ng/ml of VEGF165. 48 hours later, half the medium was removed and replaced with Stemline II medium containing 50 ng/ml of BMP4, 50 ng/ml of VEGF165 and 20 ng/ml of bFGF (all cytokines from STEMCELL. Technologies). HPSC-MC aggregates were cultured for a further 48 hours before being used for hematopoietic precursor expansion.
HPSC-MC aggregates were dissociated into single cells by treatment with TrypLE. Express (ThermoFisher Scientific) for 5 minutes at 37° C., passed through 40 μm cell strainer (Greiner Bio-one), centrifuged at 1300 rpm for 3 minutes to pellet cells, and rinsed once with phosphate buffered saline (PBS) before re-suspension in Stemline II medium. Two hundred thousand cells in 100 μl of Stemline II medium were transferred to a 6-well ultra-low attachment plate and cultured with Blast growth medium (BGM) for 2 weeks in static conditions as detailed herein.
Hematopoietic precursors were mixed with equal volume of Stemline II medium containing 50 ng/ml of SCF (STEMCELL. Technologies) and 3 U/ml EPO (Peprotech, USA), for an additional 7 days. Subsequently, cells were diluted 10-fold with PBS and pelleted by centrifugation at 3000 rpm for 10 minutes. Erythroblast cells were seeded at a concentration of 2.5×10^5 cells/ml in 3 ml of Stemline II media containing 1× Serum Replacement 3 (Sigma-Aldrich), 0.3% v/v Ex-CYTE growth enhancement media supplement (Merck, USA), 100 ng/ml SCF, 3 U/ml EPO, 1 μM hydrocortisone (Sigma-Aldrich), 200 μg/ml holo-transferrin (MP Biomedicals) and 1× penicillin-streptomycin (ThermoFisher Scientific) in 6-well ultra-low attachment plates under static condition. Cells were re-suspended in fresh media every 4 days and reseeded at 2.5×10^5cells/m=l when cell concentrations exceeded 2×10^6cells/ml. Cumulative fold-expansion was calculated by multiplying fold-expansion achieved between passaging of cells over the course of experiment(s).
For flow cytometric analysis of mesoderm and hematopoietic surface markers, cells were incubated for 15 minutes at room temperature with 1:50 diluted direct-conjugated antibodies. The following human antibodies were used: T-brachyury-FITC (R&D Systems), KDR-PE (Miltenyi Biotec), CD31-PE, CD43-FITC, CD 45-PE, CD71-APC, CD235a-FITC (all from BD Biosciences, USA). The following antibodies were used as isotype-controls: mouse IgG1-FITC and PE (Miltenyi Biotec, Germany), mouse IgG2bk-FITC and mouse IgG2ak-APC (BD Biosciences). […]

Molecule | KDR+PDGFRα− population [1] | Mesoderm induction % KDR+ PDGFRα− (BR7 O-neg hiPSC line) | Mesoderm induction % KDR+ PDGFRα− (D5 O-neg hiPSC line) | erythroid cells (hES-3-MC aggregates; MC-aggregates expanded in agitation condition) | erythroid cells (hES-3-MC aggregates; MC-aggregates expanded in static condition) | total CD235a population (hES-3-MC aggregates; agitated hPSC expansion) | T-bra (hES-3-MC aggregates; agitated hPSC expansion) | KDR (hES-3-MC aggregates; agitated hPSC expansion) | total hematopoietic precursors per well (hES-3-MC aggregates; agitated hPSC expansion) | total erythroblast per well (hES-3-MC aggregates; agitated hPSC expansion) | total CD235a population (hES-3-MC aggregates; static hPSC expansion) | T-bra (hES-3-MC aggregates; static hPSC expansion) | KDR (hES-3-MC aggregates; static hPSC expansion) | total hematopoietic precursors per well (hES-3-MC aggregates; static hPSC expansion) | total erythroblast per well (hES-3-MC aggregates; static hPSC expansion)
Cc1c[nH]c(-c2cnc(NCCNc3ccc(C#N)cn3)nc2-c2ccc(Cl)cc2Cl)n1 [CHIR-99021, 6-[[2-[[4-(2,4-Dichlorophenyl)-5-(5-methyl-1H-imidazol-2-yl)-2-pyrimidinyl]amino]ethyl]amino]-3-pyridinecarbonitrile] | significantly highest | 18.6% | 35.8% |  |  |  |  |  |  |  |  |  |  |  | 
B1 |  |  |  | 0.004-4.2×10^7 erythroid cells | 0.25-7.3×10^7 erythroid cells | 0.51±0.1% | 0.50±0.02% | 1.1±0.12% | 1.39×10^5±2.18×10^4 per well | 4.11±2.4×10^4 per well | 51.8±2.0% | 32.6±1.2% | 27.9±3.3% | 5.77×10^6±6.30×10^5 per well | 26.2±4.7×10^6 per well
